Data reported in patent US20250163164A1 (LANOVA MEDICINES DEVELOPMENT, published 2025).
Where a chain is given by its changes, count along the chain named. Where “and” joins values, the source holds several entries; their conditions need not be identical. Equal values may be shown once.

T1: human interleukin 13 receptor subunit alpha 2 (IL-13RA2) (human, UniProt Q14627 27-380)
T1 construct: whole, on cells; also called IL-13Rα2; CD213A2
T1 sequence (looked up): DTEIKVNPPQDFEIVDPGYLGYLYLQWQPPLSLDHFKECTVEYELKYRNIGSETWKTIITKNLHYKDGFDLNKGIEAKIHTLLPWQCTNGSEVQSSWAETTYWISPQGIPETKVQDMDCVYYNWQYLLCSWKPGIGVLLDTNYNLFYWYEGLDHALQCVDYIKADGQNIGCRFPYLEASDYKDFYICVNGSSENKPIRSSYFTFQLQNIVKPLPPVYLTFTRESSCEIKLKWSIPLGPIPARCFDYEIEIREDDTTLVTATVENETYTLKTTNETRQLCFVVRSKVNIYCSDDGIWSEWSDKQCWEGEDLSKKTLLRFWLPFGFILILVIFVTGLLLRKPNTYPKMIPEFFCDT

B1: 73A11E2 H3L1 hIgG1 (antibody, V domains shown)
VH: QVQLVQSGAEVVKPGASVKLSCKASGFTFSSYGMSWVRQAPGQGLEWVATISGGGSYTYYPESVKGRFTITRDNSTSTLYMEMRSLRSDDTAVYYCARRDLRSAMDYWGQGTLVTVSS
VL: DVVMTQSPLSLPVTLGQPASISCKASQNVDINVAWFQQRPGQSPRRLIYSASYRYSGVPDRFSGSGSGTDFTLKISRVEAEDVGVYYCQQYNAYPLTFGQGTKLEIK
notes: humanized, hIgG1
B2: 73A11E2 H4L4 hIgG1 (antibody, V domains shown)
VH: B1 VH with Q3K, Q6E, G44R, M81L
VL: DIVMTQSPLSLPTTLGQPVSVSCKASQNVDINVAWYQQRPGQSPRALIYSASYRYSGVPDRFSGSGSGTDFTLTISRVEAEDVAVFFCQQYNAYPLTFGGGTKLEIK
notes: humanized, hIgG1
B3: 73A11E2 H4L1 hIgG1 (antibody, V domains shown)
VH: B1 VH with Q3K, Q6E, G44R, M81L
VL: B1 VL
notes: humanized, hIgG1
B4: 73A11E2 H4L2 hIgG1 (antibody, V domains shown)
VH: B1 VH with Q3K, Q6E, G44R, M81L
VL: B1 VL with V2I, F36Y, R46A, Y86F
notes: humanized, hIgG1
B5: 73A11E2 H3L4 hIgG1 (antibody, V domains shown)
VH: B1 VH
VL: B2 VL
notes: humanized, hIgG1
B6: 73A11E2 H3L3 hIgG1 (antibody, V domains shown)
VH: B1 VH
VL: B2 VL with V19A, V21I, A84G, F87Y
notes: humanized, hIgG1
B7: 73A11E2 H3L2 hIgG1 (antibody, V domains shown)
VH: B1 VH
VL: B1 VL with V2I, F36Y, R46A, Y86F
notes: humanized, hIgG1
B8: 73A11E2 H4L3 hIgG1 (antibody, V domains shown)
VH: B1 VH with Q3K, Q6E, G44R, M81L
VL: B2 VL with V19A, V21I, A84G, F87Y
notes: humanized, hIgG1
B9: xi51G2B3 hIgG1 (antibody, V domains shown)
VH: QVQLQQSGPELVKPGASVKISCKASGYAFSDSWMNWVKQRPGQGLEWIGRIYPGDGDTNYNGKFKGKATLTADKSSNTAYMQLSSLTSVDSAVYFCARSWNGSPWFPYWGQGTLVTVSA
VL: DVLMTQTPLSLPVSLGDQASISCRSSQTIAHRNGNTYLEWYLQKPGQSPKLLLYKVSNRFSGVPDRFSGSGSGTDFTLKISRVEAEDLGVYYCFQGSHVTWTFGGGTKLEIK
B10: xi24G6D5 hIgG1 (antibody, V domains shown)
VH: QVQLQQSGPELVKPGTSVKMSCKASGYTFTSNYIHWVKQRPGQGLEWIGWIYPGDGSIKYNEKFKGKTTLTADKSSSTVYMLLSSLTSEDSAIYFCAVLRRLDYWGQGTTLTVSS
VL: DIVLTQSPATLSVTPGDSVSLSCRASQSISNNLHWYQQKSHESPRLLIKYASQSISGIPSRFSGSGSGTDFTLSINSVETEDFGMYFCQQSNSWPLTFGAGTKLELK
B11: xi34A5G9 hIgG1 (antibody, V domains shown)
VH: EVHLQQSGPELVKPGASVKISCKTSGYTFTEYTMHWVKQSHGKSLEWIGRINPNNGIAEYKQTFKDKATLAVDKSSSTAYMEFRSLTSEDSAVYYCARGEGYGYWFAYWGQGTLVTVSA
VL: DIQMTQSPASLSASVGETVTITCRTSDNIYSYLAWYQQRQGKSPQLLVSNARTLAEGVPSRFSGSGSGTQFSLKINSLQPEDFGIYYCQHHSGTPFTFGSGTNLEIE
B12: 51G2B3 (antibody, V domains shown)
VH: B9 VH
VL: B9 VL
notes: purified mouse antibody
B13: 62F6A8 (antibody, V domains shown)
VH: QVQIQQSGAELARPGASVMLSCKASGYTFTDYWMQWIKQRPGQGLEGIGAIYPGDGDTAYNQKFRGKATLTADKSSSTAYMQLNSLASEDSAVYFCARGATLLRPFPFWGQGTLVTVSA
VL: DIVMTQSHKFMSTSVGDRVSITCKASQDVSTAVAWYQQKPGQSPKLLIYSASYRYAGVPDRFTGSGSGTDFTFTISSVQAEDLAVYSCQQHYSIPPTFGGGTKLEIK
notes: purified mouse antibody
B14: 61H8C1 (antibody, V domains shown)
VH: B13 VH with I4L, D31S, M34T, G56D, A59S, R65K, A87T, F95Y, F108Y
VL: B13 VL with A56T
notes: purified mouse antibody
B15: 24G6D5 (antibody, V domains shown)
VH: B10 VH
VL: B10 VL
notes: purified mouse antibody
B16: 34A5G9 (antibody, V domains shown)
VH: B11 VH
VL: B11 VL
notes: purified mouse antibody
B17: 62A8D8 (antibody, V domains shown)
VH: EVKLVESGGGLVKPGGSLKLSCAASGFTFSSYGMSWVRQTPEKRLEWVATISGGGSYTYYPDSVKGRFTISRDNAKNNLYLQMSSLRSEDTALYYCARRDLRSAMDYWGQGTSVTVSS
VL: DIVMTQSQKFMSTSVGDRVSVTCKASQNVDINVAWYQQKPGQSPKALIYSASYRYSGVPDRFTGSGSGTDFTLTISNVQSEDLAEFFCQQYNNYPLTFGGGTKLEIK
notes: purified mouse antibody
B18: 42E3C4 (antibody, V domains shown)
VH: B17 VH with K13R, L20I, S31T
VL: B17 VL with Y53F, F86Y, N93S
notes: purified mouse antibody
B19: 74B5E4 (antibody, V domains shown)
VH: B17 VH with K19R, S31T
VL: B17 VL with F86Y, N93T
notes: purified mouse antibody
B20: 54A4F7 (antibody, V domains shown)
VH: B17 VH with Y107H
VL: B17 VL with K24R, A46S, F86Y, N93S, K107R
notes: purified mouse antibody
B21: 73A11E2 (antibody, V domains shown)
VH: B17 VH with K76R, S84N
VL: B17 VL with N93S
notes: purified mouse antibody
B22: 57F8H3F1 (antibody, V domains shown)
VH: QVQLQQPGAELVRPGASVKLSCKASGYTFTNYWMNWIKQRPEQGLEWIGRIDPYETETHYNQKFRDRAILTVDKSSSTAFMQLSGLTSEDSAVYYCARGYGHYYGVDYWGQGTSVTVSS
VL: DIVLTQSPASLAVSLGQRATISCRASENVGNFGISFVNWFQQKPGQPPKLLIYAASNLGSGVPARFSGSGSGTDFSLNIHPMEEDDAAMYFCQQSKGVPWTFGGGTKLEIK
notes: purified mouse antibody
B23: 72B4H4 (antibody, V domains shown)
VH: QVQLQQPGAERVRPGASVKLSCKASGYTFTNYWMNWVKQRPEQGLEWIGRIDPYAGETHYNQKFKDKAILTVDKSSSTAYMQLRSLTSEDSAVYYCARGYGDSYGMDHWGQGTSVTVSS
VL: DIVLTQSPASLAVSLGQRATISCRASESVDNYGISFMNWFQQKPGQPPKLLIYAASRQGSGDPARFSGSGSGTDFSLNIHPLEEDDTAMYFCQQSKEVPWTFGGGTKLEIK
notes: purified mouse antibody

What follows are binders tested against T1, human interleukin 13 receptor subunit … (assay: FACS on A375 cells).
Protocol: (§1) A375 cells that endogenously expressed IL-13RA2, were harvested from flasks. 100 μl of 1×10⁶ cells/ml of cells were incubated with primary humanized antibodies in 4-fold serial dilutions starting from 200 nM to 0.003 nM for 30 minutes on ice. After being washed with 200 μl of FACS buffer twice, cells were incubated with secondary antibody for 30 minutes on ice. Cells were washed with 200 μl of FACS buffer twice and analyzed by FACS.

| Binder | EC50 |
| --- | --- |
| B1 | 1.07 nM and 1.37 nM |
| B2 | 1.12 nM and 1.51 nM |
| B3 | 0.943 nM and 1.2 nM |
| B4 | 1.12 nM and 1.31 nM |
| B5 | 1.16 nM and 1.29 nM |
| B6 | 1.49 nM and 1.17 nM |
| B7 | 2.22 nM and 1.53 nM |
| B8 | 0.909 nM and 1.45 nM |

Target: T1, human interleukin 13 receptor subunit …
Assay: FACS on A375 cells
Remark: another data set of the same source
Protocol: as §1, with “primary chimeric” for “primary humanized”, “in 3-fold” for “in 4-fold”, “from 300” for “from 200”, “to 0.002” for “to 0.003”
As shown in FIG. 3 and Table 4, the chimeric antibodies bound to human IL-13RA2 at different EC50.

| Binder | EC50 [nM] | Top (MFI) |
| --- | --- | --- |
| B9 | 0.64 | 15500 |
| B10 | 0.88 | 15200 |
| B11 | 0.26 | 16700 |

Each binder was assayed against T1, human interleukin 13 receptor subunit … (assay: cell-based or functional assay).

| Binder | internalization EC50 (pHAb dye), A375 cells [nM] | internalization EC50 (pHAb dye), CHO-K1/H_IL-13RA2 cells [nM] | internalization EC50 (pHAb dye), HEK-293/H IL-13RA2 cells [nM] | internalization Top (MFI), A375 cells [MFI] | internalization Top (MFI), CHO-K1/H_IL-13RA2 cells [MFI] | internalization Top (MFI), HEK-293/H IL-13RA2 cells [MFI] |
| --- | --- | --- | --- | --- | --- | --- |
| B9 | 1.32 | 1.84 | 3.84 | 6380 | 17100 | 28900 |
| B10 | 0.61 | 0.86 | 2.76 | 4110 | 12700 | 23700 |
| B11 | 3.63 | 1.38 | 1.78 | 8610 | 13900 | 25700 |

Target: T1, human interleukin 13 receptor subunit …
Assay: FACS on A375 cells
Remark: another data set of the same source
Protocol: as §1, with “expressed IL-13RA2” for “expressed IL-13RA2,”, “primary” for “primary humanized”, “from 100” for “from 200”, “to 0.006” for “to 0.003”

| Binder | EC50 [nM] | Top (MFI) |
| --- | --- | --- |
| B12 | 0.87 | 243000 |
| B13 | 0.68 | 217000 |
| B14 | 0.41 | 203000 |
| B15 | 0.68 | 226000 |
| B16 | 0.67 | 248000 |
| B17 | 0.9 | 334000 |
| B18 | 0.52 | 235000 |
| B19 | 0.6 | 268000 |
| B20 | 0.84 | 268000 |
| B21 | 0.71 | 223000 |
| B22 | 0.7 | 246000 |
| B23 | 0.76 | 262000 |
